The numbers were not newly measured in article PMC8896763, which cites them from elsewhere.

As usually defined, the Kd is the equilibrium constant for the complex coming apart.

Among the targets are CD58 (Homo sapiens) (UniProt P19256); CD48 (Rattus norvegicus) (UniProt P10252); CD80 (UniProt P33681); PSGL-1 (Homo sapiens) (UniProt Q14242).
Chain of UniProt Q14242 (Q14242 42-320): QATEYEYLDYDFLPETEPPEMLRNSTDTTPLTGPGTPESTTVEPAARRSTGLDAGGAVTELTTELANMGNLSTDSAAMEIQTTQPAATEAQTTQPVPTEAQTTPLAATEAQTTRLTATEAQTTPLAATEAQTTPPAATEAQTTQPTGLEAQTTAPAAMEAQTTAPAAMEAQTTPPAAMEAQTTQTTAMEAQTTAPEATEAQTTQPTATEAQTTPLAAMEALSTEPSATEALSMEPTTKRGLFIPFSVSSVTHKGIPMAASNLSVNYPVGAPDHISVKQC
Chain of UniProt P33681 (P33681 35-242): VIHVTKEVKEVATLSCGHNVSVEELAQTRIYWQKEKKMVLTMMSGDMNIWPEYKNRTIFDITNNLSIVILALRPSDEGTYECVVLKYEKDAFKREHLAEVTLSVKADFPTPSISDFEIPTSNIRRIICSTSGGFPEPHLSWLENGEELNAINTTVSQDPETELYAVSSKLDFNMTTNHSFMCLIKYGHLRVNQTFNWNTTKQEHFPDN
Chain of UniProt P19256 (P19256 29-215): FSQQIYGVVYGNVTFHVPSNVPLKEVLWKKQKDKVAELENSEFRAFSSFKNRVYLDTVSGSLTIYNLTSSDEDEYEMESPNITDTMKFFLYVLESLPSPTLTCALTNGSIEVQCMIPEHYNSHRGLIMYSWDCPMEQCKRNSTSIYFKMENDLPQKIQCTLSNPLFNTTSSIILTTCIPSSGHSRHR
Chain of UniProt P10252 (P10252 23-217): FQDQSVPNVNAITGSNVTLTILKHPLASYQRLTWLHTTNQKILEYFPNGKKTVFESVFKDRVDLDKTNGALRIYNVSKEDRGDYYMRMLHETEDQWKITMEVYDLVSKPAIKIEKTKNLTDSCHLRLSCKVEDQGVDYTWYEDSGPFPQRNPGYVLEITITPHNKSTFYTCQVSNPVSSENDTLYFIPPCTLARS

For the substance CD2 (from UniProt P06729), the Kd with CD58 (Homo sapiens) is 10 µM.

Consider CD2 (from UniProt P08921), for which the Kd with CD48 (Rattus norvegicus) was 60 µM.

For the substance CD28 (from UniProt P10747), in the data set with CD80, the Kd was 2 µM.

With P-selectin (from UniProt P16109), the Kd with PSGL-1 (Homo sapiens) was 0.3 µM.
